Measurements as given in paper PMC7138838, “Gating mechanism of elongating β-ketoacyl-ACP synthases” (Nature Communications, 2020).

B1: FabF (KASII family β-ketoacyl-ACP synthase), wild type (enzyme, E. coli)
chain: MSKRRVVVTGLGMLSPVGNTVESTWKALLAGQSGISLIDHFDTSAYATKFAGLVKDFNCEDIISRKEQRKMDAFIQYGIVAGVQAMQDSGLEITEENATRIGAAIGSGIGGLGLIEENHTSLMNGGPRKISPFFVPSTIVNMVAGHLTIMYGLRGPSISIATACTSGVHNIGHAARIIAYGDADVMVAGGAEKASTPLGVGGFGAARALSTRNDNPQAASRPWDKERDGFVLGDGAGMLVLEEYEHAKKRGAKIYAELVGFGMSSDAYHMTSPPENGAGAALAMANALRDAGIEASQIGYVNAHGTSTPAGDKAEAQAVKTIFGEAASRVLVSSTKSMTGHLLGAAGAVESIYSILALRDQAVPPTINLDNPDEGCDLDFVPHEARQVSGMEYTLCNSFGFGGTNGSLIFKKI
notes: FabF, elongating β-ketoacyl-ACP synthase (KASII family), E. coli; also called wt FabF; source: E. coli BL21, purified (Ni-NTA, thrombin cleavage, Superdex 200); not shown: His8, N-terminal, cleaved

Experiments:
[1] = target: the molecule itself; experiment: crystal structure; AcpP covalently crosslinked through its pantetheineamide probe (Ser36) to Cys163 of the KS (crypto-AcpP:KS 5:1, 37 °C, 16 h; SEC in 20 mM Tris, 50 mM NaCl, pH 7.4); hanging drop, 6 °C, PEG 8K, 0.1 M sodium cacodylate pH 6.5
[2] = target: B1; experiment: cross-linking; mechanism-based crosslinking, single time point: 40 μM crypto-AcpP, 20 μM FabF, 25 mM Tris, 150 mM NaCl, 10% glycerol, 0.5 mM TCEP, pH 7.4; SDS-PAGE densitometry; efficiency normalised to the average of wt FabF; n = 3; details: both partners purified
[3] = target: FabF G402A (loop flexibility-modulated mutant) (E. coli); experiment: as above
[4] = target: FabF F400A (gate removal mutant) (E. coli); experiment: as above
[5] = target: FabF G310F (pocket-blockage mutant) (E. coli); experiment: as above
[6] = target: FabF D265A (loop 2 destabilization mutant) (E. coli); experiment: as above
[7] = target: FabF G310M (pocket-blockage mutant) (E. coli); experiment: as above
[8] = target: FabF D265N (loop 2 destabilization mutant) (E. coli); experiment: as above
[9] = target: B1; experiment: crystal structure; AcpP covalently crosslinked through its pantetheineamide probe (Ser36) to Cys163 of the KS (crypto-AcpP:KS 5:1, 37 °C, 16 h; SEC in 20 mM Tris, 50 mM NaCl, pH 7.4); hanging drop, 6 °C, PEG 8K, 0.1 M sodium cacodylate pH 6.5; details: both partners purified

binding result [2] | crosslinking efficiency normalised to wt FabF [5] [%] | crosslinking efficiency normalised to wt FabF [6] [%] | crosslinking efficiency normalised to wt FabF [7] [%] | crosslinking efficiency normalised to wt FabF [8] [%] | Binder | further results
 |  |  |  |  | B1 | stoichiometry N [1]: 2
binds |  |  |  |  | C8Cl-AcpP (natural protein, E. coli, Ser36 carries a 4'-phosphopantetheineamide arm with the C8 chloroacrylate (chlorovinyl) probe, acyl carrier protein AcpP, E. coli; also called C8Cl (2b); source: E. coli BL21 (DE3), purified; apofied with AcpH, loaded with the C8 chloroacrylate probe by the one-pot chemoenzymatic method, purified by SEC) MSTIEERVKKIIGEQLGVKQEEVTNNASFVEDLGADSLDTVELVMALEEEFDTEIPDEEAEKITTVQAAIDYINGHQA | crosslinking efficiency normalised to wt FabF [3]: 24%; crosslinking efficiency normalised to wt FabF [4]: 133%
 | 33 | 51 | 30 | 64 | crypto-1a-AcpP (C12AcpP) (natural protein, E. coli, Ser36 carries a 4'-phosphopantetheineamide arm with the C12 α-bromo acyl probe 1a, acyl carrier protein AcpP, E. coli; Called 'native AcpP recombinant protein'; no tag is named; In the crosslinked complexes the α-carbon of the probe is bonded to Cys163 of the KS; also called C12αBr-AcpP; C12αBr (1a); source: E. coli BL21 (DE3), purified (isopropanol precipitation, HiTrap Q, Superdex 75); apofied with AcpH, loaded with probe 1a by the one-pot chemoenzymatic method, purified by …) MSTIEERVKKIIGEQLGVKQEEVTNNASFVEDLGADSLDTVELVMALEEEFDTEIPDEEAEKITTVQAAIDYINGHQA | binding result [9]: binds
binds | 73 | 72 | 70 | 77 | 1c-AcpP (C2αBr-AcpP) (natural protein, E. coli, Ser36 carries a 4'-phosphopantetheineamide arm with the C2 α-bromo probe 1c, acyl carrier protein AcpP, E. coli; also called C2αBr (1c); crypto-1c-ACP; source: E. coli BL21 (DE3), purified; apofied with AcpH, loaded with probe 1c by the one-pot chemoenzymatic method, purified by SEC) MSTIEERVKKIIGEQLGVKQEEVTNNASFVEDLGADSLDTVELVMALEEEFDTEIPDEEAEKITTVQAAIDYINGHQA | 
 |  |  |  |  | crypto-1b-AcpP (C16AcpP) (natural protein, E. coli, Ser36 carries a 4'-phosphopantetheineamide arm with the C16 α-bromo acyl probe 1b, acyl carrier protein AcpP, E. coli; Called 'native AcpP recombinant protein'; no tag is named; In the crosslinked complexes the α-carbon of the probe is bonded to Cys163 of the KS; source: E. coli BL21 (DE3), purified (isopropanol precipitation, HiTrap Q, Superdex 75); apofied with AcpH, loaded with probe 1b by the one-pot chemoenzymatic method, purified by SEC) MSTIEERVKKIIGEQLGVKQEEVTNNASFVEDLGADSLDTVELVMALEEEFDTEIPDEEAEKITTVQAAIDYINGHQA | binding result [9]: binds
binds | 85 | 63 | 82 | 73 | C3Cl-AcpP (natural protein, E. coli, Ser36 carries a 4'-phosphopantetheineamide arm with the C3 chloroacrylate (chlorovinyl) probe, acyl carrier protein AcpP, E. coli; also called C3Cl (2a); source: E. coli BL21 (DE3), purified; apofied with AcpH, loaded with the C3 chloroacrylate probe by the one-pot chemoenzymatic method, purified by SEC) MSTIEERVKKIIGEQLGVKQEEVTNNASFVEDLGADSLDTVELVMALEEEFDTEIPDEEAEKITTVQAAIDYINGHQA | crosslinking efficiency normalised to wt FabF [3]: 87%
 |  |  |  |  | FabB (KASI family β-ketoacyl-ACP synthase), wild type (enzyme, E. coli, FabB, elongating β-ketoacyl-ACP synthase (KASI family), E. coli; source: E. coli BL21, purified (Ni-NTA, thrombin cleavage, Superdex 200); not shown: His8, N-terminal, cleaved) MKRAVITGLGIVSSIGNNQQEVLASLREGRSGITFSQELKDSGMRSHVWGNVKLDTTGLIDRKVVRFMSDASIYAFLSMEQAIADAGLSPEAYQNNPRVGLIAGSGGGSPRFQVFGADAMRGPRGLKAVGPYVVTKAMASGVSACLATPFKIHGVNYSISSACATSAHCIGNAVEQIQLGKQDIVFAGGGEELCWEMACEFDAMGALSTKYNDTPEKASRTYDAHRDGFVIAGGGGMVVVEELEHALARGAHIYAEIVGYGATSDGADMVAPSGEGAVRCMKMAMHGVDTPIDYLNSHGTSTPVGDVKELAAIREVFGDKSPAISATKAMTGHSLGAAGVQEAIYSLLMLEHGFIAPSINIEELDEQAAGLNIVTETTDRELTTVMSNSFGFGGTNATLVMRKLKD | stoichiometry N [1]: 2
